Consider one substance from publication doi:10.1101/2021.01.06.425618.

Assay [1] concerns the target venus-PreIQ3-IQ-A1.3 (wild type) (rat) (UniProt P27732). The experiment in a line: FRET or BRET.
Assay [2] has as its target venus-PreIQ3-IQ-A1.3 F[-2]A (rat). The experiment in a line: FRET or BRET.

Sequence of UniProt P27732 (P27732 whole entry): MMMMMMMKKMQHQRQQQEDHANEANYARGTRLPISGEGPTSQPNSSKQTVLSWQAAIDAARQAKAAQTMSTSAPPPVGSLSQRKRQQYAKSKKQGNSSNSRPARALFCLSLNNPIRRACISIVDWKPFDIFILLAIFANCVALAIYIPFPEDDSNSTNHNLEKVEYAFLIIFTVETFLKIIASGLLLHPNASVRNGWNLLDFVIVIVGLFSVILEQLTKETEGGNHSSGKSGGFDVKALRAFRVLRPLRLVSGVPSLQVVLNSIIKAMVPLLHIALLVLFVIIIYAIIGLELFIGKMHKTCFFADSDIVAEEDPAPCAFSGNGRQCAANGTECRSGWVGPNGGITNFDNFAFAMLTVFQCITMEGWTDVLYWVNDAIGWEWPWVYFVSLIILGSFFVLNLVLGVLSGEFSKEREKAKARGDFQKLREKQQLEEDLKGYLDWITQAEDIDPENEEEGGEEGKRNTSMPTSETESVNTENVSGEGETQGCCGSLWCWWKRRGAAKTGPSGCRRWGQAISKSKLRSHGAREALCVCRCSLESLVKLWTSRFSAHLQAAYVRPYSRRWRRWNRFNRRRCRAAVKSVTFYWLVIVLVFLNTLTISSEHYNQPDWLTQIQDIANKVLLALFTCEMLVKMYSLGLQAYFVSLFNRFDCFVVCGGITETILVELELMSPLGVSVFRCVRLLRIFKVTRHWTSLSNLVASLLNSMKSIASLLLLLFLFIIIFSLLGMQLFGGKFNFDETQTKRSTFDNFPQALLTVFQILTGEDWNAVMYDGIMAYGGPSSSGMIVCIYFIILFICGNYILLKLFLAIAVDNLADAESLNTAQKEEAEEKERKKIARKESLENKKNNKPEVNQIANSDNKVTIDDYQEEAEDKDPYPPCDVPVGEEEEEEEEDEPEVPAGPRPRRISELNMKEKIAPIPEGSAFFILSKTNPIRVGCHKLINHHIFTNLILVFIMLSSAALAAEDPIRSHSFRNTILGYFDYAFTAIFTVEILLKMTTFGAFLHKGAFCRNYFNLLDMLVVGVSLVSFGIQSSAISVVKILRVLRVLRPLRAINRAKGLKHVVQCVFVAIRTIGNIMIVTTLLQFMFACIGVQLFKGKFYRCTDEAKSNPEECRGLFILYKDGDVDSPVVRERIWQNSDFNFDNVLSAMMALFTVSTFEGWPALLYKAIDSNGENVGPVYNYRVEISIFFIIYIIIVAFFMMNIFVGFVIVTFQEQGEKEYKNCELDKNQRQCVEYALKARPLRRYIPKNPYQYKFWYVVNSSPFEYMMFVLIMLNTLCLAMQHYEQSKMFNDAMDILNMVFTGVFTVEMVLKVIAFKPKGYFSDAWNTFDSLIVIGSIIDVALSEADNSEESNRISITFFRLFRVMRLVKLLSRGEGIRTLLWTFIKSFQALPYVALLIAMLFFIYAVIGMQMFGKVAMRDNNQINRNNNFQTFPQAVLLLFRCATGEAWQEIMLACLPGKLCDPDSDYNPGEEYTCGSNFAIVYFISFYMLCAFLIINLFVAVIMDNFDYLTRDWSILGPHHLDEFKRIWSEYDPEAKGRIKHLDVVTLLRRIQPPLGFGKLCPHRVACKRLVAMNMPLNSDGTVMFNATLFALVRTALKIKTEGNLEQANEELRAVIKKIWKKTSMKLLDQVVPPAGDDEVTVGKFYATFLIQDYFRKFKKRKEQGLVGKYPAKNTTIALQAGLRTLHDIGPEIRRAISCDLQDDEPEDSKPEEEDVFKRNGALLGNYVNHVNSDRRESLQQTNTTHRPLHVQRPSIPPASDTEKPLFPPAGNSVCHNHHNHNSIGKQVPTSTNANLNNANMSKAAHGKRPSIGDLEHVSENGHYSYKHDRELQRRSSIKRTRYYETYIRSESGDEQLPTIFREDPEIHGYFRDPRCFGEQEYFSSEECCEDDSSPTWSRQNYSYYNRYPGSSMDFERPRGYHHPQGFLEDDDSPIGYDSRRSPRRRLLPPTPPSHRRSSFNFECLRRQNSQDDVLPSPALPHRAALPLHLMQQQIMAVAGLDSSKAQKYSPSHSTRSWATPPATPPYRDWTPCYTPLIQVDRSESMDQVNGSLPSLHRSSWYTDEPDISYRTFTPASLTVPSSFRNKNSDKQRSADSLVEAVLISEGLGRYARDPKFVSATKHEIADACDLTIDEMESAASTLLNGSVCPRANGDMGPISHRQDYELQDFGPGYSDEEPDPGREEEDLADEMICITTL

As to “Cerulean-ICDI1.4 (wild type) (from UniProt O60840 1-1977) (domain or fragment)”, the Ka stood at 2.14e+07 M⁻¹ in assay [1] and 5.8e+06 M⁻¹ in assay [2].
